Test results taken from PMC7994332, “A Bifan Motif Shaped by ArsR1, ArsR2, and Their Cognate Promoters Frames Arsenic Tolerance of Pseudomonas putida” (Frontiers in Microbiology, 2021).

B1: 6His-ArsR1 (natural protein, Pseudomonas putida KT2440, UniProt Q88LK1 11-128, looked up)
chain: MREILTPPIVFKCLADDTRARMTLLIAREGELCVCELTHALELSQPKISRHLAQLREAGILMDRRKGQWVYYRLHPEVPQWVDAMLKGVVDANQEWLSPDALRLAEMGERPQSPVACA
notes: ArsR1, As(III)-responsive transcriptional repressor of the ars1 operon (SmtB/ArsR family), Pseudomonas putida KT2440; protein of 118 amino acids; 373-bp PCR fragment that includes the arsR1 gene cloned BamHI/HindIII into pQE32; Theoretical monomer mass with tag 14,869 Da; source: E. coli M15 (pREP4, pQE32-ArsR1), purified (Ni-NTA agarose, dialysed)
B2: 6His-ArsR2 (natural protein, Pseudomonas putida KT2440, UniProt Q88JD1 1-115, looked up)
chain: MITPPDVFKSLSDETRARATLLIASLGELCVCELMCALNDSQPKISRHLAQLRSNGMLLDRRQGQWVYYRLNPELPSWVHEMLQVTLQANSQWLADNALRLKNMDGRPVRDSVCC
notes: ArsR2, As(III)-responsive transcriptional repressor of the ars2 operon (SmtB/ArsR family), Pseudomonas putida KT2440; protein of 115 amino acids; 364-bp PCR fragment that includes the arsR2 gene cloned BamHI/HindIII into pQE32; Theoretical monomer mass with tag 14,519 Da; source: E. coli M15 (pREP4, pQE32-ArsR2), purified (Ni-NTA agarose, dialysed)

Tests used:
[1] = test system: 6His-ArsR2 (Pseudomonas putida KT2440); experiment: EMSA; settings: no arsenite; 'gross KD'; EMSA: TRRG buffer (20 mM Tris-HCl pH 7.5, 50 mM KCl, 2 mM beta-mercaptoethanol, 10% glycerol), BSA, 25 ug/ml herring sperm DNA, 0.3 nM probe, 20 min 30 C …
[2] = test system: 6His-ArsR1 (Pseudomonas putida KT2440); experiment: EMSA; settings: no arsenite; 'gross KD'; EMSA: TRRG buffer (20 mM Tris-HCl pH 7.5, 50 mM KCl, 2 mM beta-mercaptoethanol, 10% glycerol), BSA, 25 ug/ml herring sperm DNA, 0.3 nM probe, 20 min 30 C …
[3] = target: the molecule itself; experiment: AUC; sedimentation velocity, 20°C, 48,000 rpm, 20 mM NaH2PO4, 100 mM KCl, 2 mM β-mercaptoethanol, pH 8.0, with or without 2 mM arsenite; data shown for 20 μM protein (methods: 42 μM 6His-ArsR1, 36 μM 6His-ArsR2); s = 2.1 ± 0.1 S

| Molecule | stoichiometry N [3] | further results |
| --- | --- | --- |
| Pars2 probe |  | Kd [1]: 500 nM |
| Pars1 probe |  | Kd [2]: 200 nM |
| B1 | 2 |  |
| B2 | 2 |  |
